The text below walks through data of US12528864 (GlaxoSmithKline, dated 2026).

Where a chain is given by its changes, count along the chain named.

B1: 42Y073-2B04-46 (antibody, V domains shown)
VH: QVQLQQWGAGLLKPSETLSLTCAVYGGSFRRYYWSWIRQPPGKGLEWIGEIDGWGSTNYNPSLKSRVTISVDTSKNQFSLKLSSVTAADTAVYYCARGGSVDFWSGSDYYYYMDVWGKGATVTVSS
VL: EIVLTQSPATLSLSPGERATLSCRASQSVSSYLAWYQQKPGQAPRLLIYDASKRATGIPARFSGSGSGTDFTLTISSLEPEDFAVYYCQQLDNWPITFGGGTKVEIK
notes: Fully human antibody; also called 42Y073-2804-46
B2: 42Y073-86F04-88 (antibody, V domains shown)
VH: QVQLVQSGAEVKKPGSSVKVSCKASGGTFSSSAISWVRQAPGQGLEWMGGIIPIFGRANYAQKFQGRVTITADESTSTAYMELSSLRSEDTAVYYCARLLGESGMDVWGQGTTVTVSS
VL: DIQMTQSPSSLSASVGDRVTITCRASQSISSYLNWYQQKPGKAPKLLIYAASSLQSGVPSRFSGSGSGTDFTLTISSLQPEDFATYYCQQPYFSPPTFGGGTKVEIK
notes: Fully human antibody
B3: 42Y073-86F08-4 (antibody, V domains shown)
VH: QVQLVQSGAEVKKPGSSVKVSCKASGGTFSEYAIHWVRQAPGQGLEWMGNIIPIFGTAGYAQKFQGRVTITADESTSTAYMELSSLRSEDTAVYYCARGAGYYGDKDPMDVWGQGTTVTVSS
VL: DIQLTQSPSSLSASVGDRVTITCRASQSISSYLNWYQQKPGKAPKLLIYAASSLQSGVPSRFSGSGSGTDFTLTISSLQPEDFATYYCQQVLHTITFGGGTKVEIK
notes: Fully human antibody
B4: 42Y073-86F08-22 (antibody, V domains shown)
VH: B3 VH with S16A, G27Y, S30D, E31S, I34M, N50G, G59W
VL: B3 VL
notes: Fully human antibody
B5: 42Y073-86F08-17 (antibody, V domains shown)
VH: B3 VH with S30R, H35S, N50G, I54V, G59N
VL: B3 VL
notes: Fully human antibody; also called 42Y073-88F08-17
B6: 42Y073-86F08-8 (antibody, V domains shown)
VH: B3 VH with S30W, E31L, H35S, N50G, I54Q, F55L, G59N
VL: B3 VL
notes: Fully human antibody; also called 42Y073-88F08-8
B7: 42Y073-86F08-47 (antibody, V domains shown)
VH: B3 VH with E31Q, N50V, T57K, G59N
VL: B3 VL
notes: Fully human antibody

In the first assay the target is T1, human CD96v2 expressed on cells (CHO cells; transiently transfected HEK cells) (human, UniProt P40200-2 22-569).
T1 construct: whole, on cells; the cell is named under assay; also called CHO-huCD96; hCD96v2
T1 sequence (looked up): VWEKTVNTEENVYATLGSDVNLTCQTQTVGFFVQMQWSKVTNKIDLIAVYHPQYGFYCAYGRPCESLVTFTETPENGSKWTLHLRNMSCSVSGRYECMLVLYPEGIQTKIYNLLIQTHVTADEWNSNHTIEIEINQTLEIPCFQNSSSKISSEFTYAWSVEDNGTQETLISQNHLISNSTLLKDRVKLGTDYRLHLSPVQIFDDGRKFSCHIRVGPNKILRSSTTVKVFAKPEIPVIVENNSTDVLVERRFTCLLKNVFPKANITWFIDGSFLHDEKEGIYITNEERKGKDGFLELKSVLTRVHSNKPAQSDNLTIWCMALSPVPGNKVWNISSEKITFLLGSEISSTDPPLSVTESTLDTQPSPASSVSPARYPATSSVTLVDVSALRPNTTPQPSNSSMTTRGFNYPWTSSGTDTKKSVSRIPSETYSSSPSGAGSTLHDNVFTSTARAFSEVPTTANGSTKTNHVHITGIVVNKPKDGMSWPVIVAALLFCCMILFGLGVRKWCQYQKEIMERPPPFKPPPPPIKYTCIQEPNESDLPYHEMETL
Kind of assay: flow cytometry on CHO cells expressing human CD96v2.
Molecule B1 yielded an EC50 of 1.06 nM.

The molecule B2 showed an EC50 of 0.05 nM.

In turn, B3 gave an EC50 of 0.04 nM.

With B4, the response was half-maximal at 0.03 nM (EC50).

B5 yielded an EC50 of 0.1 nM.

Molecule B6 registered an EC50 of 0.17 nM.

Molecule B7 showed an EC50 of 0.05 nM.

The next assay addresses T2, cynomolgus monkey CD96v2 expressed on cells (CHO cells; transiently transfected HEK cells) (cynomolgus monkey, UniProt A0A2K5TWV6 22-569).
T2 construct: the cell is named under assay; also called CHO-cyCD96; Cyno CD96v2
T2 sequence: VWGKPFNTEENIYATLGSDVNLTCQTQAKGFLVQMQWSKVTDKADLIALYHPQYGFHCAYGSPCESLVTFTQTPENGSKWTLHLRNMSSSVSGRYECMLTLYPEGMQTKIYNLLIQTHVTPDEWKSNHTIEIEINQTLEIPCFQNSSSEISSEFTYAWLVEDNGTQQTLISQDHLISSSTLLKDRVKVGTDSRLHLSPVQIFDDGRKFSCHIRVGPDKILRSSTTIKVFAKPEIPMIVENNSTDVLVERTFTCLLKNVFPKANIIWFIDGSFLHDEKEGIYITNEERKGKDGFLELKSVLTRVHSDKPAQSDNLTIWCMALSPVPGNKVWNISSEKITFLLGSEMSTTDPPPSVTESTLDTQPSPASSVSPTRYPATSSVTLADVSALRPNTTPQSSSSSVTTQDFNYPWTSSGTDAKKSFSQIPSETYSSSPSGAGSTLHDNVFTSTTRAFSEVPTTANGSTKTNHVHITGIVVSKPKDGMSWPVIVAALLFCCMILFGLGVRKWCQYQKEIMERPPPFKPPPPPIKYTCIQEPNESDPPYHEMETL
Kind of assay: flow cytometry on CHO cells expressing cynomolgus CD96v2.
In turn, B1 had an EC50 of 0.04 nM.

In turn, B2 gave an EC50 of 0.16 nM.

The molecule B3 had an EC50 of 0.07 nM.

As for B4, a half-maximal response (EC50) required 0.09 nM.

In turn, B5 had an EC50 of 0.03 nM.

Turning to B6, the EC50 was found to be 0.03 nM.

B7 registered an EC50 of 0.06 nM.

Another assay has as its target T1, human CD96v2 expressed on cells (CHO …). Kind of assay: flow cytometry, inhibition of human CD155-Fc-AF647 binding to CHO cells expressing human CD96v2; competitor CD155-Fc.
Molecule B1 displayed an IC50 of 0.4 nM.

B2 came in with an IC50 of 0.21 nM.

With B3, the IC50 came out at 0.38 nM.

Consider B4, for which the IC50 was 0.41 nM.

For B5, the IC50 is 0.52 nM.

Turning to B6, the IC50 came to 0.93 nM.

B7 showed an IC50 of 0.17 nM.
